Laboratory results as given in patent US20210069342A1 (LEGOCHEM BIOSCIENCES, published 2021).

T1: BCMA-Fc, a recombinant protein where the extracellular domain of human BCMA protein is linked to human Fc (human, UniProt Q02223 1-54)
T1 construct: extracellular domain; Negative control in panning and ELISA; also called negative control-Fc
T1 sequence (looked up): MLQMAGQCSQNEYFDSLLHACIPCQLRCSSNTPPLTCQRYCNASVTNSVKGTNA

B1: anti-ROR1 IgG antibody DG6 (antibody, V domains shown)
VH: EVQLLESGGGLVQPGGSLRLSCAASGFTFSDYDMSWVRQAPGKGLEWVSVISPDGGSIYYADSVKGRFTISRDNSKNTLYLQMNSLRAEDTAVYYCARDVVECNMNPCSYDNAMDVWGQGTLVTVSS
VL: QSVLTQPPSASGTPGQRVTISCSGSSSNIGSNYVSWYQQLPGTAPKLLIYDDSHRPSGVPDRFSGSKSGTSASLAISGLRSEDEADYYCGAWDDSLSGYVFGGGTKLTVLG
notes: Full IgG form (human IgG1 constant region, lambda light chain), expressed in CHO-S cells
B2: anti-ROR1 monoclonal phage antibody AB4 (soluble scFv) (scFv, V domains shown)
VH: EVQLLESGGGLVQPGGSLRLSCAASGFTFSSYDMSWVRQAPGKGLEWVSWISPDSGSIYYADSVKGRFTISRDNSKNTLYLQMNSLRAEDTAVYYCARPTGRFDYWGQGTLVTVSS
VL: QSVLTQPPSASGTPGQRVTISCSGSSSNIGNNNVNWYQQLPGTAPKLLIYYDNKRPSGVPDRFSGSKSGTSASLAISGLRSEDEADYYCGTWDASLSGYVFGGGTKLTVLG
notes: Tested as soluble scFv in culture supernatant, detected through an HA tag
B3: anti-ROR1 monoclonal phage antibody A2F3 (soluble scFv) (scFv, V domains shown)
VH: EVQLLESGGGLVQPGGSLRLSCAASGFTFSSYDMSWVRQAPGKGLEWVSWISPGGGSKYYADSVKGRFTISRDNSKNTLYLQMNSLRAEDTAVYYCARVNGRFDYWGQGTLVTVSS
VL: QSVLTQPPSASGTPGQRVTISCSGSSSNIGNNNVSWYQQLPGTAPKLLIYADSHRPSGVPDRFSGSKSGTSASLAISGLRSEDEADYYCATWDYSLSGYVFGGGTKLTVLG
notes: as for B2
B4: anti-ROR1 monoclonal phage antibody BA6 (soluble scFv) (scFv, V domains shown)
VH: EVQLLESGGGLVQPGGSLRLSCAASGFTFSNYDMSWVRQAPGKGLEWVSAIYHSGSSKYYADSVKGRFTISRDNSKNTLYLQMNSLRAEDTAVYYCARGGNGAWDTGFDYWGQGTLVTVSS
VL: QSVLTQPPSASGTPGQRVTISCSGSSSNIGSNDVSWYQQLPGTAPKLLIYYDNNRPSGVPDRFSGSKSGTSASLAISGLRSEDEADYYCGAWDDSLSGYVFGGGTKLTVLG
notes: as for B2
B5: anti-ROR1 monoclonal phage antibody CC9 (soluble scFv) (scFv, V domains shown)
VH: EVQLLESGGGLVQPGGSLRLSCAASGFTFSSYDMSWVRQAPGKGLEWVSGISHGSGNKYYADSVKGRFTISRDNSKNTLYLQMNSLRAEDTAVYYCAKRLSLRRRPSYYSDNAMDVWGQGTLVTVSS
VL: QSVLTQPPSASGTPGQRVTISCTGSSSNIGNNAVNWYQQLPGTAPKLLIYYDSNRPSGVPDRFSGSKSGTSASLAISGLRSEDEADYYCGAWDDSLSGYVFGGGTKLTVLG
notes: as for B2
B6: anti-ROR1 monoclonal phage antibody DG6 (soluble scFv) (scFv, V domains shown)
VH: EVQLLESGGGLVQPGGSLRLSCAASGFTFSDYDMSWVRQAPGKGLEWVSVISPDGGSIYYADSVKGRFTISRDNSKNTLYLQMNSLRAEDTAVYYCARDVVECNMNPCSYDNAMDVWGQGTLVTVSS
VL: QSVLTQPPSASGTPGQRVTISCSGSSSNIGSNYVSWYQQLPGTAPKLLIYDDSHRPSGVPDRFSGSKSGTSASLAISGLRSEDEADYYCGAWDDSLSGYVFGGGTKLTVLG
notes: as for B2
B7: anti-ROR1 monoclonal phage antibody A2F2 (soluble scFv) (scFv, V domains shown)
VH: EVQLLESGGGLVQPGGSLRLSCAASGFTFSDYYMSWVRQAPGKGLEWVSSISPDGSNTYYADSVKGRFTISRDNSKNTLYLQMNSLRAEDTAVYYCAKNLRAFDYWGQGTLVTVSS
VL: QSVLTQPPPASGTPGQRVTISCSGSSSNIGSNTVYWYQQLPGTAPKLLIYANSQRPSGVPDRFSGSKSGTSASLAISGLRSEDEADYYCGSWDYSLSGYVFGGGTKLTVLG
notes: as for B2
B8: anti-ROR1 monoclonal phage antibody C2E3 (soluble scFv) (scFv, V domains shown)
VH: EVQLLESGGGLVQPGGSLRLSCAASGFTFSNYAMSWVRQAPGKGLEWVSSISHNSGSTYYADSVKGRFTISRDNSKNTLYLQMNSLRAEDTAVYYCAKFISARKSLGRSYSNGMDVWGQGTLVTVSS
VL: QSVLTQPPSASGTPGQRVTISCTGSSSNIGSNDVTWYQQLPGTAPKLLIYADSKRPSGVPDRFSGSKSGTSASLAISGLRSEDEADYYCGTWDYSLSGYVFGGGTKLTVLG
notes: as for B2
B9: anti-ROR1 monoclonal phage antibody D2B12 (soluble scFv) (scFv, V domains shown)
VH: EVQLLESGGGLVQPGGSLRLSCAASGFTFSNYDMSWVRQAPGKGLEWVSSISPSSGSSIYYADSVKGRFTISRDNSKNTLYLQMNSLRAEDTAVYYCAKAPGWCQAPSCYYDNAMDVWGQGTLVTVSS
VL: QSVLTQPPSASGTPGQRVTISCSGSSSNIGNNDVSWYQQLPGTAPKLLIYDDSQRPSGVPDRFSGSKSGTSASLAISGLRSEDEADYYCGAWDDSLSGYVFGGGTKLTVLG
notes: as for B2

Legend:
[1] = biological target: T2, recombinant human ROR1-His (Sino Biological, 13968-H08H) (human, UniProt Q01973 30-406); assay: ELISA, wells coated with human ROR1 protein (sheet: 'human ROR1'; text: ROR1-Fc or ROR1-His), IgG titrated, HRP anti-Fab detection, OD (450-650nm)
T2 construct: extracellular domain; Bought protein; also called ROR1-HIS protein; not shown: His tag
T2 sequence (Q01973 30-406): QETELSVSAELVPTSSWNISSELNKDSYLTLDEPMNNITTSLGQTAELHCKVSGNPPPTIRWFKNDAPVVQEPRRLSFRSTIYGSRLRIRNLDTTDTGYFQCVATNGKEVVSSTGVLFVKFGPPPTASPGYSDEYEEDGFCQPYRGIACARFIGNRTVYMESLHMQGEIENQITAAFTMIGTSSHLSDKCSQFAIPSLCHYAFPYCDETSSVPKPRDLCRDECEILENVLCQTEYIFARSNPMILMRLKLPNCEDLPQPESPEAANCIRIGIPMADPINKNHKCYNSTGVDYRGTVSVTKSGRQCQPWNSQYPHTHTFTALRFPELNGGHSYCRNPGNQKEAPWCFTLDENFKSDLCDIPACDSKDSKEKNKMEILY
Protocol: (§1) Anti-ROR1 antibody antigen binding affinity was assessed using an ELISA-based solution binding assay. Specifically, a 96-well microtiter plate (Nunc-Immuno Plates), NUNC) was coated for 16 hours at 4° C. with the ROR1 protein described below at a concentration of 1 in PBS solution, and non-specific binding sites were blocked for 2 hours with 3% BSA (bovine serum albumin). Here, the ROR1 protein used was, in the case of human ROR1, the ROR1-Fc or recombinant human ROR1-His (Sino Biological, 13968-H08H) of Embodiment 1. The ROR1-His used in ELISA, as stated in the above sentence, was a protein from the Sino Biological company (13968-H08H), and the ROR1-His of Embodiment 1 or recombinant mouse ROR1 protein was used (Acrobiosystems, RO1-M5221-100 )
(§2) Subsequently, the anti-ROR1 antibodies prepared in Embodiment 3 were added at the concentrations stated in FIG. 2 to a 96-well microtiter plate, and binding capacity was analyzed using ELISA as follows. Specifically, after incubating for 2 hours, the plate was washed 5 times with PBS containing 0.05% Tween 20, then HRP-conjugated Fab multiclonal antibody reagent (Perce, 31414) was diluted to 1:10,000 and placed in the washed microtiter plate. After reacting for 1 hour at 37° C., the ROR1 antibodies bonded to the plate were detected. After the reaction, color development was performed using TMB (Tetramethylbenzidine, Sigma, T0440). The enzymatic reaction was stopped using 0.5 mol/L sulfuric acid, and absorbance at 450 nm and 650 nm was measured (450 nm-650 nm) using a micro plate reader (Molecular Device)

[2] = biological target: T3, recombinant mouse ROR1 protein (Acrobiosystems, RO1-M5221) (mouse, UniProt Q9Z139 30-403); assay: ELISA, wells coated with recombinant mouse ROR1 protein, IgG titrated, HRP anti-Fab detection, OD (450-650nm)
T3 construct: Bought protein; also called mouse ROR1 antigen
T3 sequence (Q9Z139 30-403 limits assumed): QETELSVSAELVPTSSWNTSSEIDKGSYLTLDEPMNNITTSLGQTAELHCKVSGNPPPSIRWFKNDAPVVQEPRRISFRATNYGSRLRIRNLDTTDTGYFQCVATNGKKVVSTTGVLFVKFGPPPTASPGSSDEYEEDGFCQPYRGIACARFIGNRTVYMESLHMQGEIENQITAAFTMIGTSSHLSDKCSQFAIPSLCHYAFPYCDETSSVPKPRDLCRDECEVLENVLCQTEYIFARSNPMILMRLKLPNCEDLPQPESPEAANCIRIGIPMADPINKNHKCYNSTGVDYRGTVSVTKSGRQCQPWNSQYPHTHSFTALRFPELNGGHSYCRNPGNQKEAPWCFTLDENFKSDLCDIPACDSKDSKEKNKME
Protocol: as §1, §2

[3] = biological target: T4, human ROR2 over-expressed on CHO cells (CHO-human ROR2) (human, UniProt Q01974 34-943); assay: flow cytometry on CHO-S cells transiently over-expressing human ROR2, FITC anti-human Fc detection, MFI ratio to 2nd Ab alone
T4 construct: whole, on cells; Negative control; also called family protein human ROR2
T4 sequence (Q01974 34-943): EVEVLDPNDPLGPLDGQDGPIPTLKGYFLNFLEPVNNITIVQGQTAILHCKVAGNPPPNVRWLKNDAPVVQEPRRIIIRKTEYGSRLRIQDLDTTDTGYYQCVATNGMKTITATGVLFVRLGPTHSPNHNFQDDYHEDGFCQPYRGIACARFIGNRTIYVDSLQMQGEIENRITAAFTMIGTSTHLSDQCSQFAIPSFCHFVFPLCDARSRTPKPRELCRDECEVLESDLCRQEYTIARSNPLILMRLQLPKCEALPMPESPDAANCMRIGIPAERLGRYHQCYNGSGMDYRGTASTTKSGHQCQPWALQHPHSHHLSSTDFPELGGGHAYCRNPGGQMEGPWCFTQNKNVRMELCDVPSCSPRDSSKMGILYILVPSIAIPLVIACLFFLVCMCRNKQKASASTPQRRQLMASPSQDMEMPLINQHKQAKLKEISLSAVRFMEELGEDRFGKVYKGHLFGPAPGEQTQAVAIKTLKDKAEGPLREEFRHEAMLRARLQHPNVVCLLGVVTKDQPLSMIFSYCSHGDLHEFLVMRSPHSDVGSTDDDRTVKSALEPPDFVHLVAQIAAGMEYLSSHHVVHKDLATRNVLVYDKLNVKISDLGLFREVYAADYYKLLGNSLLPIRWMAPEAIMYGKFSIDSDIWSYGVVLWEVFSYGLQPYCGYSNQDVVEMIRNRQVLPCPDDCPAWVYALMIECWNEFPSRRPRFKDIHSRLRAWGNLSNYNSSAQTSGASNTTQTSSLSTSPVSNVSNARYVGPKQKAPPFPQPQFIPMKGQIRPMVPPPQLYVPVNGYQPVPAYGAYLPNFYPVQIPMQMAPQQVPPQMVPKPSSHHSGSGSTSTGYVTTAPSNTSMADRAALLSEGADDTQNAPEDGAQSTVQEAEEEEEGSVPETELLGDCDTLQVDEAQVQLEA
Text: For this experiment, using cell lines (FIG. 5 and FIG. 7, respectively) transiently (CHO-human ROR1, CHO-human ROR2, CHO-mouse ROR1) or stably (MC38-human ROR1) transfected with ROR1 gene to achieve artificial over-expression of ROR1 protein, an ROR1-expressing cell line (JeKo-1, Mino) (FIG. 6), a non ROR1-expressing cell line (MCF7) (FIG. 6) and a FACSCalibur (BD Biosciences) device was used to measure the degree to which anti-ROR1 antibody and ROR1 were bound, as follows. […] JeKo-1, Mino, CHO-human ROR1, CHO-mouse ROR1 and MC38-human ROR1 are all cell lines which express human ROR1 or mouse ROR1.
Specifically, after dissociating each cell line and washing in PBS, the number of cells was counted and adjusted to 2×10⁵ cells/200 PBS. Then the respective ROR1 monoclonal antibodies prepared in Embodiment 3 were diluted 5 times from 10 /mL or 10 /mL, then reacted for 1 hour at 4° C. After the reaction, the cells were washed in PBS, then FITC-marked constant region (Fc) specific antibody (Goat anti-human IgG FITC conjugate, Fc specific, Sigma, F9512, concentration 20 mg/ml) was suspended in 2 /1×10⁵ cells/200 PBS and reacted for 1 hour at 4° C. As for identification of the degree of expression of the transiently over-expressed human ROR1, human ROR2 and mouse ROR1, a commercially available FACS analysis antibody (anti-ROR1: R&D Systems, FAB 2000G, anti-ROR2: R&D, FAB20641P) was used. After reacting the cells were washed in PBS and analyzed using a FACSCalibur device. The negative control (2nd Ab) was only treated with FITC-marked constant region (Fc) specific antibody. The shifted readings for the respective experimental groups treated with ROR1 monoclonal antibody were compared against the shifted reading for the control group (MFI Ratio: MFI of anti-ROR1/MFI of 2nd Ab).

[4] = biological target: T2, recombinant human ROR1-His (Sino …); assay: BLI (Octet), ROR1-His on Anti-Penta-His or AR2G biosensor, IgG 30 to 0.021 nM, 1:1 fit
Protocol: A 96-well black microplate (greiner bio one) was mounted on a biosensor tray case, and 200 10×KB or DW was added to each of 8 wells. Then Anti Penta His biosensors or 8 AR2G biosensors (ForteBio, USA) were inserted to hydrate for 10 minutes. 600 of the assay samples were diluted 2-fold or 3-fold to the appropriate assay concentrations, using 1×KB or 10×KB to 30 to 0.021 nM. To immobilize the antigen, recombinant human ROR1-His (Sino Biological, 13968-H08H) was diluted to 1 /ML with 10×KB or Sodium Acetate pH5 buffer. Immobilization was fixed at a threshold of 0.3 nm in the loading step. The association assay was carried out for 3 to 10 minutes, and the dissociation assay was carried out for 20 minutes. According to the Octet program template, the buffer was placed in a new 96-well black microplate according to order. As Baseline1, 200 10×KB or DW was placed. Then 200 each of 1 /mL of the antigen to be loaded, the ROR1-HIS protein, was added. As Baseline2, 200 10×KB or 1×KB was placed. Then to each well 30 to 0.021 nM of the diluted antibody and 200 each of 10×KB buffer or 1×KB corresponding to a reference blank was added. The temperature of the test plate was fixed at 30° C. After all of the samples were introduced, the equipment was started, and after the assay was completed, results were uploaded to the Octet Analysis 90 software, with KD values analyzed through 1:1 fitting. By obtaining KD values through the Octet assay method, it was confirmed that the anti-ROR1 antibody had strong binding potential to ROR1 antigen.

[5] = biological target: T1, BCMA-Fc, a recombinant protein where …; assay: ELISA, wells coated with BCMA-Fc (negative control), monoclonal scFv supernatant, anti-HA HRP detection, OD (450-650nm)
Protocol: Specifically, 100 ng per well of recombinant human ROR1-Fc prepared in Embodiment 1-1 or FBMA-Fc was placed in a 96-well microtiter plate (Nunc-Immuno Plate, NUNC, USA), which was coated overnight at 4° C. BCMA-Fc is the protein used as a negative control, a recombinant protein where the extracellular domain of human BCMA protein is linked to human Fc. 200 μL each of 3% BSA was placed in each well, and blocked for 2 hours at 37° C.
The monoclonal phage supernatant was prepared by mixing 1:1 with 3% BSA, and 100 μL each of this mixture was loaded into the wells and reacted for 2 hours at 37° C. After washing 5 times with 300 μL PBST, anti-HA HRP binding antibody was added, reacted for 1 hour at 37° C., then washed 5 times with PBST. 100 μL TMB (Tetramethylbenzidine, Sigma, T0440) was added for color development, and then 50 μL 1N H2SO₄ was added to stop the reaction. Absorbance was measured at 450 nm and 650 nm, and clones where the absorbance at 450 nm and 650 nm was […] when coated with 1 /mL ROR1 were screened (FIG. 1)

Row | Binder | binding result [5] | other results
1 | B1 | – | EC50 (read off the curve) [1]: ~100 pM; EC50 (read off the curve) [2]: ~100 pM; binding result [3]: no binding; Kd [4]: 152 pM; koff [4]: 0.000338 s⁻¹; kon [4]: 2.23e+06 M⁻¹ s⁻¹
2 | B2 | no binding | –
3 | B3 | no binding | –
4 | B4 | no binding | –
5 | B5 | no binding | –
6 | B6 | no binding | –
7 | B7 | no binding | –
8 | B8 | no binding | –
9 | B9 | no binding | –
